We go through eleven molecules from patent publication US20190062422A1 (MorphoSys, published 2019).

Positions count from the first letter of the chain named.

The target in test [1] is T1, mouse IL17C (mouse, UniProt Q8K4C5 17-194, limits assumed, biotinylated in the receptor interaction, inhibition and serum stability assays (sites not given)).
T1 construct: Bought recombinant protein; About 22 kDa reduced and about 40 kDa non-reduced on SDS-PAGE; Used plain (coated, ELISA) or biotinylated; also called biotinylated mouse IL17C; biotin-IL17C
T1 sequence (looked up): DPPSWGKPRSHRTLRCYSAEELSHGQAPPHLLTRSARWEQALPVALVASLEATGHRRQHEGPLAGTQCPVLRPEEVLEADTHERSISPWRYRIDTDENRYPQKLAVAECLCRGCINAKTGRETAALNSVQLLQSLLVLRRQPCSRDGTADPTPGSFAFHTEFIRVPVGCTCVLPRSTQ
The experiment in a line: solution equilibrium titration (SET), ECL based, monovalent Fab fragment (Fab_FH format). As for the experimental part: Monovalent affinities of anti-IL17C antibodies were determined by solution equilibrium titration (SET) using Fab fragments. Affinity determination in solution was basically performed as described in the literature (Friquet et al., (1985) J. Immunol. Meth. 77: 305-19). In order to improve the sensitivity and accuracy of the SET method, it was transferred from classical ELISA to ECL based technology (Haenel et al. (2005) Anal Biochem. 339.1: 182-84). Binders were expressed and purified in Fab_FH format.

The next test has as its target T2, human IL17C (human, UniProt Q9P0M4 19-197).
T2 sequence: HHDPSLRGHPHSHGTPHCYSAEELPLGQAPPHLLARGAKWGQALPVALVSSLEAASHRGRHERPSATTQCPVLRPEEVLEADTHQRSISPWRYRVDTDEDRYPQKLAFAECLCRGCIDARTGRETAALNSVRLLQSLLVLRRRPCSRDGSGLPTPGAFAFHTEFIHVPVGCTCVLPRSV
The experiment in a line: ELISA, purified chimeric human/mouse IgG2a on huIL-17C. (In general: In an ELISA, binding on a coated surface is turned into a signal by an enzyme label.)

For test [2], the target named is T1, mouse IL17C. The experiment in a line: ELISA, purified chimeric human/mouse IgG2a titrated on mouse IL17C, n=1-2. The protocol:
All purified chimeric human-mouse chimeric IgG2a antibodies were titrated on mouse IL17C for EC₅₀ determination in ELISA starting with a concentration of 100 nM. EC₅₀ values on mouse IL17C were determined in 1 to 3 independent experiments.

Test [3] has as its target T1, mouse IL17C. Briefly: ELISA on biotin-IL17C captured on avidin: chimeric IgG2a incubated 24 h at 37°C in mouse serum against freshly diluted IgG2a. As for the experimental part: 96 well Maxisorp plates (Nunc; #442404) were coated with avidin at a concentration of 1 μg/ml in PBS overnight at 4° C. The next day, anti-IL17 chimeric IgG2a were incubated in mouse serum for 24 h at 37° C. at a final concentration 100 μg/mL. After the incubation step the antibodies were diluted 1:100 in LowCross buffer (Candor Bioscience; #100500). As a reference the same set of antibodies were freshly diluted in LowCross buffer+1% mouse serum and incubated for 30 min at RT. Avidin coated plates were incubated with blocking buffer (Superblock blocking buffer from Pierce, #37515) and subsequently 100 μL of 0.1 μg/mL biotin-IL17C in LowCross buffer was added to blocked wells. After a washing step a serial dilution of the serum-incubated and freshly diluted IgGs was added. Binding of IgGs was detected by anti-mouse-IgG2a POD conjugated detection antibody (diluted 1:5000 in LowCross buffer) using TMB One Component HRP as substrate. The reaction was stopped by adding 1M HCl and absorbance was measured at 450 nm.

Another test addresses T3, mouse IL-17B (mouse, UniProt Q9QXT6 23-180, limits assumed).
T3 sequence (looked up): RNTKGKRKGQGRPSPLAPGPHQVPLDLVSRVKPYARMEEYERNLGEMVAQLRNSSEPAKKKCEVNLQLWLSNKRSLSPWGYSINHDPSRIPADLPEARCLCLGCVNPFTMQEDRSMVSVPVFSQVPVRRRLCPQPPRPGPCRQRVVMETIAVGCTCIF
Briefly: ELISA, purified chimeric human/mouse IgG2a on msIL-17B.

Test [4] has as its target T1, mouse IL17C. Briefly: mIL17C - mIL-17RE inhibition assay (MSD): human/mouse IgG2a pre-incubated with biotinylated mouse IL17C, binding to coated mouse IL17RE/Fc detected by Streptavidin-ECL. As for the experimental part:
To determine inhibitory activity of purified anti-IL17C human-mouse chimeric IgG2a in a mIL-17 RE interaction assay, Maxisorp™ 384 well MSD plates were coated with 30 μL mouse IL17RE/Fc at 75 ng/mL in PBS at 4° C. overnight. The next day 25 μL of a serial antibody dilution (concentrations from 0.001 to 100 nM) were pre-incubated for 30 min at RT with an equal volume of biotinylated mouse IL17C at 0.125 nM. After blocking of plates for 1 h with 2.5% BSA in PBST, preformed antibody-ligand complexes were added for 1 h to coated IL17RE/Fc and receptor binding was detected via Streptavidin-ECL using MSD Sector Imager.
To characterize the antibodies in human/mouse IgG2a format in more detail, for each candidate IC₅₀ values were determined in the IL-17 receptor E inhibition assay as described herein above in up to 4 independent experiments.

As a reminder, the EC50 is the concentration that produces a half-maximal response. Low readings indicate higher potency in that assay, high ones lower potency in that assay. A word on the IC50: it is the concentration at which inhibition is half-maximal. A word on the Kd: it is the equilibrium constant for the complex coming apart. Read a low Kd as a tighter complex.

B1: MOR12757 (antibody, V domains shown)
VH: EVQLLESGGGLVQPGGSLRLSCAASGFTFSSYAMSWVRQAPGKGLEWVSFISSGGSETFYADSVKGRFTISRDNSKNTLYLQMNSLRAEDTAVYYCARVSYIYYYSWVLFDVWGQGTLVTVSS
VL: DIQMTQSPSSLSASVGDRVTITCRASQGIGTALNWYQQKPGKAPKLLIYDVSSLQSGVPSRFSGSGSGTDFTLTISSLQPEDFATYYCQQGLFLPFTFGQGTKVEIKR
notes: Tested as human-mouse chimeric IgG2a (human variable, mouse constant regions); Potential N-linked glycosylation sites were removed by site-directed mutagenesis
With B1, in the test with mouse IL17C [1], the binding result is recorded as “no binding”.

B2: MOR12741 (antibody, V domains shown)
VH: QVQLVQSGAEVKKPGSSVKVSCKASGGTFSSYAISWVRQAPGQGLEWMGMIMPEVGMADYAQKFQGRVTITADESTSTAYMELSSLRSEDTAVYYCARDFIAVGSLEIWHYYYGLDVWGQGTLVTVSS
VL: DIELTQPPSVSVSPGQTASITCSGDNIGEHYASWYQQKPGQAPVLVISYDNERPSGIPERFSGSNSGNTATLTISGTQAEDEADYYCQSWTSQKPDYVFGGGTKLTVLG
notes: as for B1
For B2, the binding result in the test with human IL17C and with mouse IL-17B was “no binding” in each case. The EC50 in the test with mouse IL17C [2] worked out at 0.47 nM. Besides, the “Coefficient of variation (Mouse Serum Stability Assay 24h/37°C)” value (from here on “Coefficient of variation”) with mouse IL17C [3] was 13%.

B3: MOR12755 (antibody, V domains shown)
VH: QVQLQQSGPGLVKPSQTLSLTCAISGDSVSSNSAAWNWIRQSPSRGLEWLGKTYYRSTWSNDYAESVKSRITINPDTSKNQFSLQLNSVTPEDTAVYYCAREMDSLTRSASSIAFDYWGQGTLVTVSS
VL: DIELTQPPSVSVSPGQTASITCSGDNLREHYVHWYQQKPGQAPVLVIYDDTERPSGIPERFSGSNSGNTATLTISGTQAEDEADYYCATRDWSNVVFGGGTKLTVLG
notes: as for B1
B3: the binding result with mouse IL17C [1] was “no binding”.

B4: MOR12756 (antibody, V domains shown)
VH: QVQLQQSGPGLVKPSQTLSLTCAISGDSVSDNSVAWNWIRQSPSRGLEWLGRIYYRSKWYNDYAVSVKSRITINPDTSKNQFSLQLNSVTPEDTAVYYCAREVLLFPARSYGTGMDVWGQGTLVTVSS
VL: DIELTQPPSVSVSPGQTASITCSGDNLPSKYVHWYQQKPGQAPVLVIYDDNERPSGIPERFSGSNSGNTATLTISGTQAEDEADYYCGVADMPRQMKVFGGGTKLTVLG
notes: as for B1
On to B4, for which, in the test with mouse IL17C [1], the binding result is “no binding”.

B5: MOR12751 (antibody, V domains shown)
VH: QVQLQQSGPGLVKPSQTLSLTCAISGDSVSSNSAAWNWIRQSPSRGLEWLGVIYYRSKWYINYADSVKSRITINPDTSKNQFSLQLNSVTPEDTAVYYCAREGIVGGWFAYWGQGTLVTVSS
VL: DIELTQPPSVSVSPGQTASITCSGDKLGSKIAHWYQQKPGQAPVLVIYDDNERPSGIPERFSGSNSGNTATLTISGTQAEDEADYYCQSWDYLSWSVVFGGGTKLTVL
notes: as for B1
For B5, the binding result with human IL17C and with mouse IL-17B was “no binding” throughout. This molecule also registered an EC50 with mouse IL17C [2] of 0.39 nM. In the test with mouse IL17C [3], the “Coefficient of variation” value was 3.75%. The molecule also yielded a 50% inhibitory concentration (IC50) with mouse IL17C [4] of 0.16 nM.

B6: MOR12759 (antibody, V domains shown)
VH: EVQLVQSGAEVKKPGESLKISCKGSGYSFNNYWIAWVRQMPGKGLEWMGFIYPSNSATQYSPSFQGQVTISADKSISTAYLQWSSLKASDTAMYYCARDNEYSDSYFDVWGQGTLVTVSS
VL: DIVLTQSPATLSLSPGERATLSCRASQIVSSYLAWYQQKPGQAPRLLIYDASSRATGIPARFSGSGSGTDFTLTISSLEPEDFAVYYCQQSVNFPTTFGQGTKVEIKR
notes: as for B1
B6: the binding result with human IL17C and with mouse IL-17B was “no binding” each time. The molecule further displayed a Kd in the test with mouse IL17C [1] of 0.22 nM. In addition, a half-maximal response in the test with mouse IL17C [2] (EC50) required 0.29 nM. Besides, the “Coefficient of variation” value with mouse IL17C [3] turned out to be 8.8%. Besides, the IC50 with mouse IL17C [4] stood at 0.028 nM.

B7: MOR12762 (antibody, V domains shown)
VH: B6 VH
VL: B6 VL with V92E, N93Q, F94V
notes: as for B1
Take B7: the binding result with human IL17C and with mouse IL-17B was “no binding” throughout. For the same molecule, binding with mouse IL17C [1] was characterised by a dissociation constant (Kd) of 0.096 nM. In the test with mouse IL17C [2], this molecule showed an EC50 of 0.4 nM. In the test with mouse IL17C [3], the “Coefficient of variation” value was 2.43%. In addition, the IC50 with mouse IL17C [4] came to 0.009 nM.

B8: MOR12760 (antibody, V domains shown)
VH: B6 VH
VL: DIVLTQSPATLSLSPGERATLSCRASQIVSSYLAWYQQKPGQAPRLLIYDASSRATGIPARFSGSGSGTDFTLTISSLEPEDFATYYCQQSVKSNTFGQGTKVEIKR
notes: as for B1
In the case of B8, the binding result with human IL17C and with mouse IL-17B was “no binding” each time. For the same molecule, in the test with mouse IL17C [2], the EC50 came to 0.27 nM. Also, in the test with mouse IL17C [3], the “Coefficient of variation” value was 35.3%. In the test with mouse IL17C [4], the IC50 was determined as 0.122 nM.

B9: MOR12761 (antibody, V domains shown)
VH: B6 VH
VL: B6 VL with V85T, V92N, N93G, F94W, P95L, T96P
notes: as for B1
In the case of B9, the binding result in the test with human IL17C and in the test with mouse IL-17B was “no binding” in each case. For the same molecule, the Kd in the test with mouse IL17C [1] was determined as 0.085 nM. This molecule also yielded an EC50 in the test with mouse IL17C [2] of 0.36 nM. Also, in the test with mouse IL17C [3], the “Coefficient of variation” value was 1.23%. This molecule came in with a 50% inhibitory concentration (IC50) with mouse IL17C [4] of 0.024 nM.

B10: MOR12758 (antibody, V domains shown)
VH: EVQLVQSGAEVKKPGESLKISCKGSGYSFTDYWISWVRQMPGKGLEWMGAIDPTDSYTRYSPSFQGQVTISADKSISTAYLQWSSLKASDTAMYYCARWYTSHPYYEGRYPMDVWGQGTLVTVSS
VL: DIALTQPASVSGSPGQSITISCTGTSSDVGHYNYVSWYQQHPGKAPKLMIYGVTKRPSGVSNRFSGSKSGNTASLTISGLQAEDEADYYCASADEWPTLHVFGGGTKLTVLG
notes: as for B1
As to B10, in the test with mouse IL17C [1], the binding result is “no binding”.

B11: MOR12740 (antibody, V domains shown)
VH: QVQLVQSGAEVKKPGSSVKVSCKASGGTFSIYAISWVRQAPGQGLEWMGGIIPILGIANYAQKFQGRVTITADESTSTAYMELSSLRSEDTAVYYCARDATHSYYHDYWGQGTLVTVSS
VL: DIALTQPASVSGSPGQSITISCTGTSSDVGSYETVSWYQQHPGKAPKVMIYEVSDRPSGVSNRFSGSKSGNTASLTISGLQAEDEADYYCGSFAHWGSWVFGGGTKLTVLG
notes: as for B1
As to B11, the binding result in the test with human IL17C and in the test with mouse IL-17B was “no binding” throughout. This molecule came in with a Kd in the test with mouse IL17C [1] of 0.17 nM. In addition, in the test with mouse IL17C [2], a half-maximal response (EC50) required 1.14 nM. This molecule came in with a half-maximal inhibitory concentration (IC50) with mouse IL17C [4] of 3.49 nM.
